Assay results published in US20240254239A1 (LAEKNA THERAPEUTICS SHANGHAI, published 2024).

How the values were obtained:
human GPC3 ECD = molecular target: T1, human GPC3 ECD (human, UniProt P51654 25-559, limits assumed); assay: direct ELISA on coated recombinant ECD (30 ng/well), HRP-conjugated secondary antibody, luminescence
T1 construct: extracellular domain; also called recombinant extracellular domain of GPC3
Experimental: (§1) Briefly, recombinant extracellular domain of PDGFRb, FAPα, ULBP1, uPAR, IGF1R, SIRPA, PD-L1, ANTXR1, CD248, or GPC3 (30 ng/well) was coated on white optiplate™-384 well HB plate. After overnight coating, standard direct ELISA assay was performed. Luminescence signal was detected after using secondary antibody with HRP conjugated. Binding activity of each antibody was determined based on dose dependent binding curve.

human MICA ECD = molecular target: T2, human MICA ECD (human, UniProt Q29983 24-307); assay: ELISA on human MICA ECD, luminescence
T2 construct: extracellular domain
T2 sequence (looked up): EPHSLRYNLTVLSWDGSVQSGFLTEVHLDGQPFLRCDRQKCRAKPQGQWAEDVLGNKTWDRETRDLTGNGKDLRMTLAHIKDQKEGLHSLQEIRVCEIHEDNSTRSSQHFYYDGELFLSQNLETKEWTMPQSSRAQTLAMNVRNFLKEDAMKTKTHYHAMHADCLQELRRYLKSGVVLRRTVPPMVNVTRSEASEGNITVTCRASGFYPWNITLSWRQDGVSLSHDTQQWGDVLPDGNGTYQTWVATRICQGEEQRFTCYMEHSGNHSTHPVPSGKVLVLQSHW

Human PDGFRb ECD [1] = molecular target: T3, Human PDGFRb ECD (human, UniProt P09619 33-532); assay: ELISA on human PDGFRb ECD, luminescence
T3 construct: extracellular domain; also called recombinant extracellular domain of PDGFRb
T3 sequence (P09619 33-532): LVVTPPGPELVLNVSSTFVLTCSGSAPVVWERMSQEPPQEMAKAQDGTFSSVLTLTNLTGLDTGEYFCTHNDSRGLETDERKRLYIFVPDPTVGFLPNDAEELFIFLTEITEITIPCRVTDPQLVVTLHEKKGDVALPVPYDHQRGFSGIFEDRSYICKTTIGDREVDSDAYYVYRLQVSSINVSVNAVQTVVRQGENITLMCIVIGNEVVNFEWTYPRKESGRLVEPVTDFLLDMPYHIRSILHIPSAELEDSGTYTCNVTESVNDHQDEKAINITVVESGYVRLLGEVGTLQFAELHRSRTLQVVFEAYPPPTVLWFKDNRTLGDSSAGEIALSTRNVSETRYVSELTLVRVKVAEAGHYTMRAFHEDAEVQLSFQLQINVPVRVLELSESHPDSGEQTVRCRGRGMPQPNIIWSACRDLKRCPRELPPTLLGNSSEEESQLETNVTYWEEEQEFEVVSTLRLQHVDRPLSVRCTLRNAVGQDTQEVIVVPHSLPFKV

Human PDGFRb ECD [2] = molecular target: T3, Human PDGFRb ECD; assay: direct ELISA on coated recombinant ECD (30 ng/well), HRP-conjugated secondary antibody, luminescence
Experimental: as §1

T1 sequence (P51654 25-559 limits assumed): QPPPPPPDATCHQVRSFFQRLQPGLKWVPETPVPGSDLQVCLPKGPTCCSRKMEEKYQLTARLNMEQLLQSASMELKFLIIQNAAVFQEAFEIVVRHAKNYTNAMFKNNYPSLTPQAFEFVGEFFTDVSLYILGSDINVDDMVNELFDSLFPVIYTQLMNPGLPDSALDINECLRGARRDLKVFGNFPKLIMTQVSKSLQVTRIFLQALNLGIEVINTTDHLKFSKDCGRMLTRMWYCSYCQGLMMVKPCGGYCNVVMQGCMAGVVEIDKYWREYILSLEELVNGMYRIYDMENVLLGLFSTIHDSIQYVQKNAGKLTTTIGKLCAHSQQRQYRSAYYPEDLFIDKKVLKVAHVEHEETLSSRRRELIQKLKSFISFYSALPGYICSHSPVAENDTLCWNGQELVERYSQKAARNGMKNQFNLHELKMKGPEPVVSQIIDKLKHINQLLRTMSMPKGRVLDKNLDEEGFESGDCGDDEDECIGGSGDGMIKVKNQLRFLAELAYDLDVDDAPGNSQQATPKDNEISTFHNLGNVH

B1: α-GPC3 1 mIgG2a S239D/1332E (antibody, V domains shown)
VH: QVQLQQSGAELVRPGASVKLSCKASGYTFTDYEMHWVKQTPVHGLKWIGALDPKTGDTAYSQKFKGKATLTADKSSSTAYMELRSLTSEDSAVYYCTRFYSYTYWGQGTLVTVSA
VL: DVVMTQTPLSLPVSLGDQASISCRSSQSLVHSNGNTYLHWYLQKPGQSPKLLIYKVSNRFSGVPDRFSGSGSGTDFTLKISRVEAEDLGVYFCSQNTHVPPTFGSGTKLEIKR
notes: mIgG2a with S239D/I332E; also called α-GPC3 1 mIgG2a S239D/I332E; exemplary anti-GPC3 antibody (α-GPC3 1)
B1 was tested, and the “EC50 (read off the curve)” value (human GPC3 ECD) was ~0.02 µg/mL.

B2: α-PDGFRb 1-NKG2D KIH S239D/1332E (bispecific antibody, human IgG1, kappa)
heavy: QVQLQESGPGLVKPSETLSLTCTVSGFSLTNYAINWVRQPPGKGLEWLGIIWTGGGTSYNSALKSRLTISKDTSKNQVSLKLSSVTAADTAVYYCARTGTRGYFFDYWGQGTLVTVSSASTKGPSVFPLAPSSKSTSGGTAALGCLVKDYFPEPVTVSWNSGALTSGVHTFPAVLQSSGLYSLSSVVTVPSSSLGTQTYICNVNHKPSNTKVDKKVEPKSCDKTHTCPPCPAPELLGGPDVFLFPPKPKDTLMISRTPEVTCVVVDVSHEDPEVKFNWYVDGVEVHNAKTKPREEQYNSTYRVVSVLTVLHQDWLNGKEYKCKVSNKALPAPEEKTISKAKGQPREPQVCTLPPSREEMTKNQVSLSCAVKGFYPSDIAVEWESNGQPENNYKTTPPVLDSDGSFFLVSKLTVDKSRWQQGNVFSCSVMHEALHNHYTQKSLSLSPGK
chain: FLNSLFNQEVQIPLTESYCGPCPKNWICYKNNCYQFFDESKNWYESQASCMSQNASLLKVYSKEDQDLLKLVKSYHWMGLVHIPTNGSWQWEDGSILSPNLLTIIEMQKGDCALYASSFKGYIENCSTPNTYICMQRTVGGSGGGSGFLNSLFNQEVQIPLTESYCGPCPKNWICYKNNCYQFFDESKNWYESQASCMSQNASLLKVYSKEDQDLLKLVKSYHWMGLVHIPTNGSWQWEDGSILSPNLLTIIEMQKGDCALYASSFKGYIENCSTPNTYICMQRTVGGGGSGGGGSGGGGSGGGGSPKSSDKTHTCPPCPAPELLGGPDVFLFPPKPKDTLMISRTPEVTCVVVDVSHEDPEVKFNWYVDGVEVHNAKTKPREEQYNSTYRVVSVLTVLHQDWLNGKEYKCKVSNKALPAPEEKTISKAKGQPREPQVYTLPPCRDELTKNQVSLWCLVKGFYPSDIAVEWESNGQPENNYKTTPPVLDSDGSFFLYSKLTVDKSRWQQGNVFSCSVMHEALHNHYTQKSLSLSPGK
light: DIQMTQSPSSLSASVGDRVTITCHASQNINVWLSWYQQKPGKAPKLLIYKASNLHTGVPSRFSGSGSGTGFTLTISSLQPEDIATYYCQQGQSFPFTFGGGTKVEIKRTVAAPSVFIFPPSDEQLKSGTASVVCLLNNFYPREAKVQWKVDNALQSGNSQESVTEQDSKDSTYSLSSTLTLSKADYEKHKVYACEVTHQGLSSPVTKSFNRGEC
notes: The Fc carries S239D/I332E; also called α-PDGFRb 1-NKG2D KIH S239D/I332E; knob-into-hole bispecific antibody
With B2 the binding result (human MICA ECD) was “binds” and the “EC50 (read off the curve)” value (Human PDGFRb ECD [1]) was ~0.02 µg/mL.

B3: α-PDGFRb 1 S239D/1332E (antibody, human IgG1, kappa, V domains shown)
VH: QVQLQESGPGLVKPSETLSLTCTVSGFSLTNYAINWVRQPPGKGLEWLGIIWTGGGTSYNSALKSRLTISKDTSKNQVSLKLSSVTAADTAVYYCARTGTRGYFFDYWGQGTLVTVSS
VL: DIQMTQSPSSLSASVGDRVTITCHASQNINVWLSWYQQKPGKAPKLLIYKASNLHTGVPSRFSGSGSGTGFTLTISSLQPEDIATYYCQQGQSFPFTFGGGTKVEIKR
notes: also called α-PDGFRb 1 S239D/I332E; exemplary anti-PDGFRb antibody (α-PDGFRb 1)
B3 was tested, and the “EC50 (read off the curve)” value (Human PDGFRb ECD [1]) was ~0.02 µg/mL and the “EC50 (read off the curve)” value (Human PDGFRb ECD [2]) was ~0.03 µg/mL.
